B1: r4_43_TrROS_Hall (parent)
chain: DLVTIKVPLENLEEIKKAAEKAGFKIVSISYDKENKEVTIVIEKKK

Variants of: B1
Assay: folding stability dG (cDNA display proteolysis); higher = more stable
Details: PBS, room temperature

Row | Variant | folding stability dG
1 | SLVTIKVPLENLEEIKKAAEKAGFKIVSISYDKENKEVTIVIEKKK | 3.84 kcal/mol
2 | WLVTIKVPLENLEEIKKAAEKAGFKIVSISYDKENKEVTIVIEKKK | 4.07 kcal/mol
3 | CLVTIKVPLENLEEIKKAAEKAGFKIVSISYDKENKEVTIVIEKKK | 3.7 kcal/mol
4 | KLVTIKVPLENLEEIKKAAEKAGFKIVSISYDKENKEVTIVIEKKK | 3.81 kcal/mol
5 | DLVTIKVPLENLEEDKKAAEKAGFKIVSISYDKENKEVTIVIEKKK | 2.44 kcal/mol
6 | DLVTIKVPLENLEEFKKAAEKAGFKIVSISYDKENKEVTIVIEKKK | 4.13 kcal/mol
7 | DLVTIKVPLENLEEGKKAAEKAGFKIVSISYDKENKEVTIVIEKKK | 3.06 kcal/mol
8 | DLVTIKVPLENLEEVKKAAEKAGFKIVSISYDKENKEVTIVIEKKK | 3.87 kcal/mol
9 | DLVTIKVPLENLEEEKKAAEKAGFKIVSISYDKENKEVTIVIEKKK | 3.39 kcal/mol
10 | DLVTIKVPLENLEEIKKAKEKAGFKIVSISYDKENKEVTIVIEKKK | 3.32 kcal/mol
11 | DLVTIKVPLENLEEIKKAAEKAGFKIMSISYDKENKEVTIVIEKKK | 3.99 kcal/mol
12 | DLVTIKVPLENLEEIKKAAEKAGFKINSISYDKENKEVTIVIEKKK | 3.24 kcal/mol
13 | DLVTIKVPLENLEEIKKAAEKAGFKIESISYDKENKEVTIVIEKKK | 2.88 kcal/mol
14 | DLVTIKVPLENLEEIKKAAEKAGFKIVSIAYDKENKEVTIVIEKKK | 3.4 kcal/mol
15 | DLVTIKVPLENLEEIKKAAEKAGFKIVSIWYDKENKEVTIVIEKKK | 3.71 kcal/mol
16 | DLVTIKVPLENLEEIKKAAEKAGFKIVSISYDKEKKEVTIVIEKKK | 3.17 kcal/mol
17 | DLVTIKVPLENLEEIKKAAEKAGFKIVSISYDKEYKEVTIVIEKKK | 3.72 kcal/mol
18 | DLVTIKVPLENLEEIKKAAEKAGFKIVLISYDKENKEVTIVIEKKK | 3.18 kcal/mol
19 | DLVTIKVPLENLEIIKKAAEKAGFKIVSISYDKENKEVTIVIEKKK | 3.71 kcal/mol
20 | DLVTIKVPLENLERIKKAAEKAGFKIVSISYDKENKEVTIVIEKKK | 3.78 kcal/mol
21 | DLVTIKVPLENLEKIKKAAEKAGFKIVSISYDKENKEVTIVIEKKK | 3.43 kcal/mol
22 | DLVTIKVPLENLEEIKKAAEKAGFKIVSISYLKENKEVTIVIEKKK | 3.21 kcal/mol
23 | DLVTIKVPLENLEEIKKAAEKAGFKIVSISYQKENKEVTIVIEKKK | 3.56 kcal/mol

Row | Variant | folding stability dG
24 | DLVTIKVPLENLEEIKKAAEKAGFKIVSISYHKENKEVTIVIEKKK | 3.67 kcal/mol
25 | DLVTIKVPLENLEEIKKAAEKAGFKIVSISYKKENKEVTIVIEKKK | 3.04 kcal/mol
26 | DLVTIKVPLENLEEIKKAAEKAGFFIVSISYDKENKEVTIVIEKKK | 3.9 kcal/mol
27 | DLVTIKVPLENLEEIKKAAEKAGFEIVSISYDKENKEVTIVIEKKK | 3.04 kcal/mol
28 | DLVTIKVPLENLEEIKKAAEKAGFCIVSISYDKENKEVTIVIEKKK | 3.06 kcal/mol
29 | DLVTIKVRLENLEEIKKAAEKAGFKIVSISYDKENKEVTIVIEKKK | 3.27 kcal/mol
30 | DLVTIKVPLENLEEIWKAAEKAGFKIVSISYDKENKEVTIVIEKKK | 3.8 kcal/mol
31 | DLVTIKVPLENLEEIKKAAEKAGFKIVSISYDKENKEVTIVIEKKT | 3.82 kcal/mol
32 | DLVTIKVPLENLEEIKKAAEKAGFKIVSISYDKENKEDTIVIEKKK | 0.46 kcal/mol
33 | DLVTIKVPLENLEEIKKAAEKAGFKIVSISYDKENKERTIVIEKKK | 1.31 kcal/mol
34 | DLVTIKVPLENLEEIKKAAEKAGFKIVSISYDKENKEFTIVIEKKK | 3.57 kcal/mol
35 | DLVTIKVPLENLEEIKKAAEKAGFKIVSISYDKENKEGTIVIEKKK | 3.18 kcal/mol
36 | DLVTIKVPLENLEEIKKAAEKAGFKIVSWSYDKENKEVTIVIEKKK | 3.93 kcal/mol
37 | DLVTIKVPLENLEEIKKAAEKAGFKIVSESYDKENKEVTIVIEKKK | 3.18 kcal/mol
38 | DLVTIKVPLENLEEIKKAAEKAGFKIVSDSYDKENKEVTIVIEKKK | 1.72 kcal/mol
39 | DLVTIKVPLENLEEIKKAAEKAGFKIVSISYDKENKEVTIVAEKKK | 3.53 kcal/mol
40 | DLVTIKVPLENLEEIKKAAEKAGFKIVSISYDKENKEVTIVLEKKK | 3.79 kcal/mol
41 | DLVTIKVPLENLEEIKKAAEKAGFKIVSISYDKENKEVTIVWEKKK | 4.19 kcal/mol
42 | DLVTIKVPLENLEEIKKAAEKAGFKIVSISYDKENKEVTIVREKKK | 2.38 kcal/mol
43 | DLVTIKVPLENLEEIKKAAEKAGFKIVSISYDKENKEVTIVPEKKK | -0.342 kcal/mol
44 | DLVTTKVPLENLEEIKKAAEKAGFKIVSISYDKENKEVTIVIEKKK | 3.42 kcal/mol
45 | DLVTIKVPLENHEEIKKAAEKAGFKIVSISYDKENKEVTIVIEKKK | 3.41 kcal/mol
46 | DLVTIKVPLENQEEIKKAAEKAGFKIVSISYDKENKEVTIVIEKKK | 3.25 kcal/mol

Row | Variant | folding stability dG
47 | DLVTIKVPLENVEEIKKAAEKAGFKIVSISYDKENKEVTIVIEKKK | 3.56 kcal/mol
48 | DLVTIKVPLENLEEIKKAAEKAGFKAVSISYDKENKEVTIVIEKKK | 2.13 kcal/mol
49 | DLVTIKVPLENLEEIKKHAEKAGFKIVSISYDKENKEVTIVIEKKK | 3.77 kcal/mol
50 | DLVTIKVPLENLEEIKKDAEKAGFKIVSISYDKENKEVTIVIEKKK | 3.57 kcal/mol
51 | DLVTIKVPLENLEEIKKIAEKAGFKIVSISYDKENKEVTIVIEKKK | 3.67 kcal/mol
52 | DLVTIKVPLENLEEIKKAAEKAGFKIVSISYDCENKEVTIVIEKKK | 3.44 kcal/mol
53 | DLVTIKVPLENLEEIKKAAEKAGFKIVSISYDSENKEVTIVIEKKK | 3.5 kcal/mol
54 | DLVTIKVPLENLEEIKKAAEKAGFKIVSISYDKENKEVTIAIEKKK | 3.49 kcal/mol
55 | DLVTIKVPRENLEEIKKAAEKAGFKIVSISYDKENKEVTIVIEKKK | 3.59 kcal/mol
56 | DLVTIKVPYENLEEIKKAAEKAGFKIVSISYDKENKEVTIVIEKKK | 3.39 kcal/mol
57 | DLVTIKVPPENLEEIKKAAEKAGFKIVSISYDKENKEVTIVIEKKK | 3.53 kcal/mol
58 | DLVTIKVPSENLEEIKKAAEKAGFKIVSISYDKENKEVTIVIEKKK | 3.47 kcal/mol
59 | DLVTIKVPEENLEEIKKAAEKAGFKIVSISYDKENKEVTIVIEKKK | 3.46 kcal/mol
60 | DLVTIKVPFENLEEIKKAAEKAGFKIVSISYDKENKEVTIVIEKKK | 3.69 kcal/mol
61 | DLVTIKVPLENLEEIKKAAPKAGFKIVSISYDKENKEVTIVIEKKK | 3.12 kcal/mol
62 | DLVTIKVPLENLEEIKKAACKAGFKIVSISYDKENKEVTIVIEKKK | 3.67 kcal/mol
63 | DLVTIKVPLENLEEIKKAAEKAGFKIVSISYDKENKEVTIVIHKKK | 3.88 kcal/mol
64 | DLVTIKVPLENLEEIKKAAEKAGFKIVSISYDKENKEVTIVIRKKK | 3.76 kcal/mol
65 | DLVTIKVPLENLCEIKKAAEKAGFKIVSISYDKENKEVTIVIEKKK | 3.74 kcal/mol
66 | DLVTIKVPLENLKEIKKAAEKAGFKIVSISYDKENKEVTIVIEKKK | 3.62 kcal/mol
67 | DLVTIKVPLENLEEIKKAAEKCGFKIVSISYDKENKEVTIVIEKKK | 3.79 kcal/mol
68 | DKVTIKVPLENLEEIKKAAEKAGFKIVSISYDKENKEVTIVIEKKK | 3.52 kcal/mol
69 | DFVTIKVPLENLEEIKKAAEKAGFKIVSISYDKENKEVTIVIEKKK | 3.76 kcal/mol

Row | Variant | folding stability dG
70 | DLVTIKVPLENLEEIKKAAEKAGFKIVSISYDKENKGVTIVIEKKK | 3.72 kcal/mol
71 | DLVTIKVPLENLEEIKKAAEKAGFKIVSISYDKENKFVTIVIEKKK | 3.93 kcal/mol
72 | DLVTIKVPLENLEEIKKAAEKAGFKIVSISYDKENKEVTIVIEKHK | 3.86 kcal/mol
73 | DLVTIKVPLENLEEIKKAAEKAGFKIVSISYDKENKEVTIVIEKIK | 3.87 kcal/mol
74 | DLVTIKVPLENLEEIKKAAEKAGFKIVSISYDKENKEVTIVIENKK | 3.53 kcal/mol
75 | DLVTIKVPLENLEEIKKAAEKAGFKIVSISYDKENKEVTIVIEYKK | 4.68 kcal/mol
76 | DLVTIKVPLENLEEIKKAAEKAGFKIVSISYDKENKEVAIVIEKKK | 3.4 kcal/mol
77 | DLVTIKVPLENLEEIKKAAEKAGFKIVSISYDKENKEVVIVIEKKK | 3.56 kcal/mol
78 | DLVTIMVPLENLEEIKKAAEKAGFKIVSISYDKENKEVTIVIEKKK | 3.31 kcal/mol
79 | DLVTIPVPLENLEEIKKAAEKAGFKIVSISYDKENKEVTIVIEKKK | 2.42 kcal/mol
80 | DLVTIKVPLENLEEIKKAAEKAGFKIVSISYDKINKEVTIVIEKKK | 3.88 kcal/mol
81 | DLVTIKVPLENLEEIKKAAEKAGFKIVSISYDKDNKEVTIVIEKKK | 3.75 kcal/mol
82 | DLVTIKVPLENLEEIKKAAEKAGFKIVSISYDKGNKEVTIVIEKKK | 3.8 kcal/mol
83 | DLVTIKVPLENLEEIKKAAEKAGFKIVSISYDKSNKEVTIVIEKKK | 3.86 kcal/mol
84 | DLVTIKVPLENLEEIKKAAEKAGFKIVSISYDKYNKEVTIVIEKKK | 3.81 kcal/mol
85 | DLVTIKVPLENLEEIKKAAEPAGFKIVSISYDKENKEVTIVIEKKK | 2.74 kcal/mol
86 | DLVTIKVPLANLEEIKKAAEKAGFKIVSISYDKENKEVTIVIEKKK | 3.8 kcal/mol
87 | DLVTIKVPLRNLEEIKKAAEKAGFKIVSISYDKENKEVTIVIEKKK | 3.72 kcal/mol
88 | DLVTIKVPLTNLEEIKKAAEKAGFKIVSISYDKENKEVTIVIEKKK | 3.75 kcal/mol
89 | DLVTIKVPLPNLEEIKKAAEKAGFKIVSISYDKENKEVTIVIEKKK | 3.48 kcal/mol
90 | DLVQIKVPLENLEEIKKAAEKAGFKIVSISYDKENKEVTIVIEKKK | 3.38 kcal/mol
91 | DLVWIKVPLENLEEIKKAAEKAGFKIVSISYDKENKEVTIVIEKKK | 3.88 kcal/mol
92 | DLVFIKVPLENLEEIKKAAEKAGFKIVSISYDKENKEVTIVIEKKK | 3.68 kcal/mol

Row | Variant | folding stability dG
93 | DLVRIKVPLENLEEIKKAAEKAGFKIVSISYDKENKEVTIVIEKKK | 3.52 kcal/mol
94 | DLVTIKVPLEMLEEIKKAAEKAGFKIVSISYDKENKEVTIVIEKKK | 3.51 kcal/mol
95 | DLVTIKVPLEKLEEIKKAAEKAGFKIVSISYDKENKEVTIVIEKKK | 3.65 kcal/mol
96 | DLVTIKVPLENLEEIKRAAEKAGFKIVSISYDKENKEVTIVIEKKK | 3.43 kcal/mol
97 | DLVTIKVPLENLEEIKQAAEKAGFKIVSISYDKENKEVTIVIEKKK | 3.75 kcal/mol
98 | DLVTIKVPLENLEEIKTAAEKAGFKIVSISYDKENKEVTIVIEKKK | 3.65 kcal/mol
99 | DLVTIKMPLENLEEIKKAAEKAGFKIVSISYDKENKEVTIVIEKKK | 3.63 kcal/mol
100 | DLVTIKGPLENLEEIKKAAEKAGFKIVSISYDKENKEVTIVIEKKK | 3.46 kcal/mol
101 | DLVTIKIPLENLEEIKKAAEKAGFKIVSISYDKENKEVTIVIEKKK | 3.6 kcal/mol
102 | DLVTIKLPLENLEEIKKAAEKAGFKIVSISYDKENKEVTIVIEKKK | 3.51 kcal/mol
103 | DLVTIKQPLENLEEIKKAAEKAGFKIVSISYDKENKEVTIVIEKKK | 3.04 kcal/mol
104 | DLVTIKVPLENLEEIKKAAEKAGFKIVSISYDKENGEVTIVIEKKK | 3.64 kcal/mol
105 | DLVTIKVPLENLEEIKKAAEKAGFKIVSISYDKENFEVTIVIEKKK | 3.48 kcal/mol
106 | DLVTIKVPLENLEEIKKAAEKAGFKIVSISYDKENYEVTIVIEKKK | 3.61 kcal/mol
107 | DLVTIKVPLENLEEIKKAAEKAGFKIVSISYDKENVEVTIVIEKKK | 3.32 kcal/mol
108 | DLYTIKVPLENLEEIKKAAEKAGFKIVSISYDKENKEVTIVIEKKK | 4.03 kcal/mol
109 | DLLTIKVPLENLEEIKKAAEKAGFKIVSISYDKENKEVTIVIEKKK | 3.62 kcal/mol
110 | DLQTIKVPLENLEEIKKAAEKAGFKIVSISYDKENKEVTIVIEKKK | 3.65 kcal/mol
111 | DLGTIKVPLENLEEIKKAAEKAGFKIVSISYDKENKEVTIVIEKKK | 3.13 kcal/mol
112 | DLVTIKVPLENLEEIKKAAEKAGFKIVSISFDKENKEVTIVIEKKK | 3.3 kcal/mol

Reference: the MegaScale stability set (Tsuboyama et al. 2023)
